Target: S3–4 single-chain TCR variant (scTv) of the A6 TCR
Assay: SPR

Substance “Tax P6A variant presented by HLA-A2 (from UniProt P61769) (peptide-MHC)” has a Kd of 5 µM.
